Results: patent US20190127440A1 (VIB VZW, published 2019)

B1: human TSLP-trap1 (designed binder)
chain: GAAEGVQIQIIYFNLETVQVTWNASKYSRTNLTFHYRFNGDEAYDQCTNYLLQEGHTSGCLLDAEQRDDILYFSIRNGTHPVFTASRWMVYYLKPSSPKHVRFSWHQDAVTVTCSDLSYGDLLYEVQYRSPFDTEWQSKQENTCNVTIEGLDAEKCYSFWVRVKAMEDVYGPDTYPSDWSEVTCWQRGEIRDACAETPTPPKPKLSKSRGGSGGSGGSGGSGGSGGSGGSGGSGGSGGSGGSGGSGGSGGSGGSGGSGGSGGSGGSGGSLQESGYAQNGDLEDAELDDYSFSCYSQLEVNGSQHSLTCAFEDPDVNTTNLEFEICGALVEVKCLNFRKLQEIYFIETKKFLLIGKSNICVKVGEKSLTCKKIDLTTIVKPEAPFDLSVIYREGANDFVVTFNTSHLQKKYVKVLMHDVAYRQEKDENKWTHVNLSSTKLTLLQRKLQPAAMYEIKVRSIPDHYFKGFWSEWSPSYYFRTPEINNSSGEMDGTKHHHHHH
notes: Monomeric single chain fusion protein; Produced in T-REx-293 cells

How the values were obtained:
[1] = target: full-length FLAG-tagged human TSLPR and full-length HA-tagged human IL-7Ralpha co-expressed on HEK293T cells (human) (UniProt Q9HC73); experiment: cell-based or functional assay
[2] = target: T1, C-terminally biotinylated human TSLP_R127A_R130S (pHL-TSLP_R127A_R130S-AVITAG construct) (human, UniProt Q969D9 29-159, specific C-terminal in vivo biotinylation on the AVITAG); experiment: biolayer interferometry (Octet RED96), biotinylated TSLP on streptavidin biosensors, 1:1 model
T1 construct: Made in HEK293T cells with BirA co-transfection; immobilised on streptavidin biosensors for BLI; also called biotinylated TSLP; not shown: C-terminal AVITAG (and purification tag) of the pHL-AVITAG vector

[3] = target: T1, C-terminally biotinylated human …; experiment: biolayer interferometry (Octet RED96), biotinylated TSLP on streptavidin biosensors, 1:1 model, average of three replicates
Description: All BLI experiments were performed in PBS buffer supplemented with 0.01% (w/v) BSA and 0.002% (v/v) Tween 20, with an Octet RED96 instrument (ForteBio), operating at 25° C.
All data were fitted with the FortéBio Data Analysis 9.0.0.4 software using a 1:1 ligand model. The reported values for the fitted parameters represent the average (and standard deviation) from three replicate measurements.

T1 sequence (Q969D9 29-159 R127A/R130S limits assumed): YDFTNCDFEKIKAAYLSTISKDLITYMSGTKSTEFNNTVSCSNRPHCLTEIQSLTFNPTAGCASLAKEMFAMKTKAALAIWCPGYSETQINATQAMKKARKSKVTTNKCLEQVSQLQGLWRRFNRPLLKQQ
Sequence of full-length FLAG-tagged human TSLPR and full-length HA-tagged human IL-7Ralpha co-expressed on HEK293T cells (human) (Q9HC73 23-371, chain 1 of 2): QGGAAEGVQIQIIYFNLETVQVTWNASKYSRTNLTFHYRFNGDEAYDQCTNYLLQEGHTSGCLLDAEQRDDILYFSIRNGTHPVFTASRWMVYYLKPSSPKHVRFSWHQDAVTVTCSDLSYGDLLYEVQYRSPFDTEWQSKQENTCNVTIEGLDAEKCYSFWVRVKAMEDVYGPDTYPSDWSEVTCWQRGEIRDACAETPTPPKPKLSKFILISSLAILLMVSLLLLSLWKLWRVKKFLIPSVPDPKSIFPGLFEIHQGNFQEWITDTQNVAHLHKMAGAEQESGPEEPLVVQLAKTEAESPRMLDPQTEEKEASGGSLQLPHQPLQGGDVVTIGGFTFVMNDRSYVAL
Sequence of full-length FLAG-tagged human TSLPR and full-length HA-tagged human IL-7Ralpha co-expressed on HEK293T cells (human) (P16871 21-459, chain 2 of 2, further chain): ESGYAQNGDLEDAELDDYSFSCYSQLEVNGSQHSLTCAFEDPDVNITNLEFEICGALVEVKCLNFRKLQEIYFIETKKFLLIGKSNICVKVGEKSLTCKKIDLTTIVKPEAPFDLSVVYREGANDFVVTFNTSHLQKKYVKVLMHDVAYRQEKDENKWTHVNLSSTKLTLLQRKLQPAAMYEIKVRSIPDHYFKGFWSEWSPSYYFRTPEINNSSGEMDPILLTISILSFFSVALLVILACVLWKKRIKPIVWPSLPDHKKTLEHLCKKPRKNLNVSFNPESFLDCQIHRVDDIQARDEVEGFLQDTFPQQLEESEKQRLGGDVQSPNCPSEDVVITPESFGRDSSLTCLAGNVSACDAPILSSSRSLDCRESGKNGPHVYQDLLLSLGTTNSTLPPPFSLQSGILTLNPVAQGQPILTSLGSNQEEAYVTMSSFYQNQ

Molecule | STAT5-dependent luciferase activity in HEK293T cells transfected with full-length TSLPR and IL-7Ralpha [1] | koff [2] | Kd [3] | kon [3]
human TSLP_R127A_R130S, mammalian-cell derived recombinant, C-terminal His-tag (from UniProt Q969D9 29-159) (ligand) | 9 pM |  |  | 
B1 |  | 1.72e-05 s⁻¹ | 0.12 nM | 140000 M⁻¹ s⁻¹
